B1: GST-β-adducin tail (amino acids 335–726) (domain or fragment, UniProt P35612 335-726, looked up)
chain: EKHRPHEVGSVQWAGSTFGPMQKSRLGEHEFEALMRMLDNLGYRTGYTYRHPFVQEKTKHKSEVEIPATVTAFVFEEDGAPVPALRQHAQKQQKEKTRWLNTPNTYLRVNVADEVQRSMGSPRPKTTWMKADEVEKSSSGMPIRIENPNQFVPLYTDPQEVLEMRNKIREQNRQDVKSAGPQSQLLASVIAEKSRSPSTESQLMSKGDEDTKDDSEETVPNPFSQLTDQELEEYKKEVERKKLELDGEKETAPEEPGSPAKSAPASPVQSPAKEAETKSPLVSPSKSLEEGTKKTETSKAATTEPETTQPEGVVVNGREEEQTAEEILSKGLSQMTTSADTDVDTSKDKTESVTSGPMSPEGSPSKSPSKKKKKFRTPSFLKKSKKKEKVES

Assays:
[1] = molecular target: B1; assay: pull-down
[2] = molecular target: T1, (His)6-tagged erythrocyte cytoplasmic domain of band 3 (cdb3), wild type (UniProt P02730 1-403); assay: pull-down
T1 sequence (looked up): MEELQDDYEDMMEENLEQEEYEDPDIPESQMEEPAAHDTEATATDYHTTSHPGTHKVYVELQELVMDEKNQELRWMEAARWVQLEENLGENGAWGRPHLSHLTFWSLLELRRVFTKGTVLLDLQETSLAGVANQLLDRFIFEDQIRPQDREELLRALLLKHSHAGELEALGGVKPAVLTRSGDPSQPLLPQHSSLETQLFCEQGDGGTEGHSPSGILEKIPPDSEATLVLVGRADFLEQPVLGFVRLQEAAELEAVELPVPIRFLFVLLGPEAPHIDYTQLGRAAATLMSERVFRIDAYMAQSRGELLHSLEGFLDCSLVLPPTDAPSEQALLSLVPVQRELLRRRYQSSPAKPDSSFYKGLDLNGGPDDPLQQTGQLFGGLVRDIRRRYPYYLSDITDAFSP

Binder	Kd [1] [nM]	Kd [2] [nM]
(His)6-tagged kidney cytoplasmic domain of band 3 (kidney cdb3) (domain or fragment, UniProt P02730-2 1-338, looked up) MDEKNQELRWMEAARWVQLEENLGENGAWGRPHLSHLTFWSLLELRRVFTKGTVLLDLQETSLAGVANQLLDRFIFEDQIRPQDREELLRALLLKHSHAGELEALGGVKPAVLTRSGDPSQPLLPQHSSLETQLFCEQGDGGTEGHSPSGILEKIPPDSEATLVLVGRADFLEQPVLGFVRLQEAAELEAVELPVPIRFLFVLLGPEAPHIDYTQLGRAAATLMSERVFRIDAYMAQSRGELLHSLEGFLDCSLVLPPTDAPSEQALLSLVPVQRELLRRRYQSSPAKPDSSFYKGLDLNGGPDDPLQQTGQLFGGLVRDIRRRYPYYLSDITDAFSP	280	
B1		260

— article PMC5042879 (The Biochemical journal, 2016)
